According to patent publication US20010000783A1, “Treatment of interstitial cystitis” (priority 1998, published 2001):

Assays:
Type in all cases: cell-based
[1] = tested on: primary human bladder epithelial cells grown from IC patient biopsy specimens; experiment: Inhibition of HPLC-purified APF activity by rhHB-EGF, 3H-thymidine incorporation, cells from IC patient biopsies; conditions: 10 pg/10^7 cells HPLC-purified APF, 48 hours; cells from IC patients; FIG. 10B
Procedure: (§1) Primary normal adult human bladder epithelial (HBE) cells were cultured by the method described above in Part II. On the third day of incubation, cell medium was replaced by serum free MEM containing the less than 3 kDa fraction (i.e, containing the APF) of urine specimens from IC patients or controls (i.e., that part containing the anti-proliferative factor or APF described in related application Ser. No. 08/944,202), or HPLC-purified APF or its mock control along with varying concentrations of recombinant HB-EGF (0-100 ng/ml), EGF (0-100 ng/ml), or IGF-1 (0-300 pg/ml) [all from R & D Systems, Minneapolis, Minn.] diluted in phosphate buffered saline (1:1:1). Urine was prepared by the method described above in Part II and HPLC purified APF was prepared as described above. Following an additional 48 hours of incubation at 37 degrees C. in a 5% CO2 atmosphere, cell proliferation was assessed by ^3H-thymidine incorporation according to the published methods^38.
(§2) Cell proliferation was determined 48 hours later by 3H-thymidine incorporation. Bar values indicate the mean of triplicate determinations. Vertical lines indicate the standard of error of the mean.

[2] = tested on: primary human bladder epithelial cells grown from normal bladder tissue; experiment: Inhibition of HPLC-purified APF activity by rhHB-EGF, 3H-thymidine incorporation, cells from normal bladder tissue; conditions: 10 pg/10^7 cells HPLC-purified APF, 48 hours; cells from controls; FIG. 10A
Procedure: as §1, §2

[3] = tested on: Normal human bladder epithelial cells; experiment: Inhibition of APF activity by recombinant growth factors, low molecular weight urine fractions, 3H-thymidine incorporation
Procedure: as §1
Normal human bladder epithelial cells were exposed simultaneously to recombinant human growth factors (HB-EGF, EGF, or IGF1) and low molecular weight fractions from IC patients or control urine specimens. Cell proliferation was determined 48 hours later by 3H-thymidine incorporation (FIGS. 6A-6C). Bar values indicate the mean of 5-8 determinations. Vertical lines indicate the standard error of the mean.

B1: heparin-binding epidermal growth factor-like growth factor (protein, UniProt Q99075 63-148, looked up)
Heparin-binding EGF-like …: DLQEADLDLLRVTLSSKPQALATPNKEEHGKRKKKGKGLGKKRDPCLRKYKDFCIHGECKYVKELRAPSCICHPGYHGERCHGLSL
In the case of B1, the “inhibition of APF's antiproliferative effects” value [1] is reported as “can inhibit APF's antiproliferative effects”, the “inhibition of APF's antiproliferative effects” value [2] is reported as “can inhibit APF's antiproliferative effects” and the “proliferation of cells exposed to urine from IC patients” value ([3]; high concentrations of rhHB-EGF, compared with cells exposed to control urines, FIG. 6A) is reported as “stimulated, more than that of cells exposed to control urines”. The “inhibition of APF antiproliferative activity” value ([3]; simultaneous exposure to recombinant growth factor and <3 kDa urine fraction, 48 hours, HB-EGF 0-100 ng/ml (effect evident at 10 ng/ml), EGF 0-100 ng/ml, IGF-1 0-300 pg/ml, FIGS. 6A-6C) was “resulted in inhibition of APF antiproliferative activity”.
